Residue numbers refer to the chain shown, from its start. Names may count otherwise.
B1: 1 × 20 kDa PEG-NBN104 (CHO) (ligand)
chain: AAGARGCRLRSQLVPVRALGLGHRSDELVRFRFCSGSCRRARSPHDLSLASLLGAGALRPPPGSRPVSQPCCRPTRYEAVSFMDVNSTWRTVDRLSATACGCLG
modifications: one 20 kDa PEG on the amino-terminal amino acid of one chain (Table 8: 1); glycosylated at amino acid 95 of each chain (95, 95)
B2: 2 × 20 kDa PEG-NBN104 (CHO) (ligand)
chain: B1 chain
modifications: 20 kDa PEG on the amino-terminal amino acid of each chain (Table 8: 1, 1); glycosylated at amino acid 95 of each chain (95, 95)
B3: NBN104 (CHO) (ligand)
chain: B1 chain
modifications: glycosylated at amino acid 95 of each chain (Table 8: 95, 95; numbering of SEQ ID NO:1)
B4: 3 × 10 kDa PEG-WT/N95K-NBN106 (ligand)
chain 1: ARATDARGCRLRSQLVPVSALGLGHSSDELIRFRFCSGSCRRARSPHDLSLASLLGAGALRSPPGSRPISQPCCRPTRYEAVSFMDVNSTWRTVDHLSATACGCLG
chain 2: B4 chain 1 with N88K
modifications: 10 kDa PEG on the amino terminus and on Lys95 (Table 8, for the dimer: 1, 1, 95); 10 kDa PEG on the amino terminus (Table 8, for the dimer: 1, 1, 95)
B5: 4 × 5 kDa PEG NBN106-N95K (ligand)
chain: B4 chain 1 with N88K
modifications: 5 kDa PEG on the amino terminus and on Lys95 of each chain (Table 8: 1, 1, 95, 95)
B6: 3 × 10 kDa PEG NBN106-N95K (ligand)
chain: B4 chain 1 with N88K
modifications: three 10 kDa PEG per dimer: both amino termini and one Lys95 (Table 8: 1, 1, 95)
B7: 3(,4) × 10 kDa PEG NBN106-N95K (ligand)
chain: B4 chain 1 with N88K
modifications: 10 kDa SPA-PEG at the amino termini and Lys95, average 3.3 PEG moieties per dimer (Table 8: 1, 1, 95 (,95)); mixture of 2, 3 and 4 PEG adducts
B8: 4 × 10 kDa PEG NBN106-N95K (ligand)
chain: B4 chain 1 with N88K
modifications: 10 kDa PEG on the amino terminus and on Lys95 of each chain (Table 8: 1, 1, 95, 95)
B9: 2 × 10 kDa PEG-NBN (ligand)
chain: AGTRSSRARATDARGCRLRSQLVPVSALGLGHSSDELIRFRFCSGSCRRARSPHDLSLASLLGAGALRSPPGSRPISQPCCRPTRYEAVSFMDVNSTWRTVDHLSATACGCLG
modifications: 10 kDa PEG on the amino-terminal amino acid of each chain (Table 8: 1, 1)
B10: 2 × 5 kDa PEG-NBN (ligand)
chain: B9 chain
modifications: 5 kDa PEG on the amino-terminal amino acid of each chain (Table 8: PEGylated amino acids 1, 1)
B11: 1 × 20 kDa Branched PEG-NBN (ligand)
chain: B9 chain
modifications: one 20 kDa branched PEG on the amino-terminal amino acid of one of the two chains (Table 8: 1)
B12: wild-type rat neublastin NBN113 (E. coli derived) (ligand)
chain: B9 chain
B13: 2 × 20 kDa PEG-NBN (ligand)
chain: B9 chain
modifications: 20 kDa PEG on the amino-terminal amino acid of each chain (Table 8: 1, 1)

How the values were obtained:
Assay in all cases: cell-based or functional assay
[1] = biological target: c-Ret (RET receptor tyrosine kinase) on NB41A3-mRL3 cells (UniProt P35546)
Chain of c-Ret (RET receptor tyrosine kinase) on NB41A3-mRL3 cells (UniProt P35546) (P35546 29-1115 limits assumed): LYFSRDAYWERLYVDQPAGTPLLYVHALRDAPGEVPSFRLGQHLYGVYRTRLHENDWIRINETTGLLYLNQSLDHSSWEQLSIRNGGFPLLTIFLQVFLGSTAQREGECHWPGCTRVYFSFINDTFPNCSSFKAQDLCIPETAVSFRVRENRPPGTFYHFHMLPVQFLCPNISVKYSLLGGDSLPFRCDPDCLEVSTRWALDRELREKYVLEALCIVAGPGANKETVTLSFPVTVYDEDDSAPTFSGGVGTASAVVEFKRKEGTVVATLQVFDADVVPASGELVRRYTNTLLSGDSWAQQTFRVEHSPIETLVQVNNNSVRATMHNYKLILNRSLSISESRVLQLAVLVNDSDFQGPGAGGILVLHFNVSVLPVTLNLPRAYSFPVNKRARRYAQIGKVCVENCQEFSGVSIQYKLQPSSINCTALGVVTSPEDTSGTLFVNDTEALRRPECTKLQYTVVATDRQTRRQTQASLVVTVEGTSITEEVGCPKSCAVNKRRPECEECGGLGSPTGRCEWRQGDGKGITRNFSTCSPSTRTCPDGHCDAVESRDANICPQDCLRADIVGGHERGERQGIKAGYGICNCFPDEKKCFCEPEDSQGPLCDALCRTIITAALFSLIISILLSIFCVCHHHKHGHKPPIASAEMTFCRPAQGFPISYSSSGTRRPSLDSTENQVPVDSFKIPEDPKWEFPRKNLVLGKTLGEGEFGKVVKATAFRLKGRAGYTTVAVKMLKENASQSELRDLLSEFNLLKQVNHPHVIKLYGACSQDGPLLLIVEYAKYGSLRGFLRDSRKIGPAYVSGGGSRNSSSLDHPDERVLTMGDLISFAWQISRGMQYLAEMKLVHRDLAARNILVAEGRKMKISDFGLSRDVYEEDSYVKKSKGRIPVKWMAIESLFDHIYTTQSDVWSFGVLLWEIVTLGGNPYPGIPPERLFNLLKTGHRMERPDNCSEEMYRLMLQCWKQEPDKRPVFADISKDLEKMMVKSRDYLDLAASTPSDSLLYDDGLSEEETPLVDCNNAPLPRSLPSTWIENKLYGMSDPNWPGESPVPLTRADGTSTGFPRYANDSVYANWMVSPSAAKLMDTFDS

[2] = biological target: T1, c-Ret (RET receptor tyrosine kinase) on NB41A3-mRL3 cells (UniProt P35546 29-1115, limits assumed)
T1 sequence (P35546 29-1115 limits assumed): as above

[3] = biological target: T1, c-Ret (RET receptor tyrosine kinase) on …; remark: listed apart in the source

Binder	KIRA:~ EC50 [1] [nM]	KIRA:~ Max Efficacy vs WT [1] [%]	KIRA:~ EC50 [2] [nM]	KIRA:~ Max Efficacy vs WT [2] [%]	potency in the KIRA ELISA relative to wild-type NBN113 [3] [fold less potent]
B1	0.3	110	–	–	–
B2	1	105	–	–	–
B3	0.7	90	–	–	–
B4	–	–	~0.7	~115	–
B5	–	–	~1	~80	–
B6	–	–	~0.8	~100	–
B7	–	–	~1.6	~90	–
B8	–	–	~11	> 80	~10
B9	–	–	~0.2	~72	–
B10	–	–	~0.2	~105	–
B11	–	–	~0.2	~83	–
B12	–	–	–	~100	–
B13	–	–	~0.6	~80	–

Reference: patent US20080306212A1 (Biogen, published 2008)
